T1: recombinant human IL4 (human, UniProt P05112 25-153)
T1 construct: bought; also called Antigen1
T1 sequence (looked up): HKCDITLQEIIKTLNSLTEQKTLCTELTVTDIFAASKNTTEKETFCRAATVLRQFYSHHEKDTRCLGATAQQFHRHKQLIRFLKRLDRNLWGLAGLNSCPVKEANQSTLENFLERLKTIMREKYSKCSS

B1: CODV-Ig Batch ID 214 (IL4 × IL13 on HC; L1=5, L2=5, L3=2, L4=2) (bispecific antibody)
chain 1: not shown
chain 2: DIVLTQSPASLAVSLGQRATISCRASESVDSYGQSYMHWYQQKAGQPPKLLIYLASNLESGVPARFSGSGSRTDFTLTIDPVQAEDAATYYCQQNAEDSRTFGGGTKLEIKGGGGGDIQMTQSPASLSVSVGDTITLTCHASQNIDVWLSWFQQKPGNIPKLLIYKASNLHTGVPSRFSGSGSGTGFTLTISSLQPEDIATYYCQQAHSYPFTFGGGTKLEIKGGGGGRTVAAPSVFIFPPSDEQLKSGTASVVCLLNNFYPREAKVQWKVDNALQSGNSQESVTEQDSKDSTYSLSSTLTLSKADYEKHKVYACEVTHQGLSSPVTKSFNRGEC
B2: CODV-Ig Batch ID 238 (IL4 × IL13 on HC; L1=5, L2=5, L3=5, L4=2) (bispecific antibody)
chain 1: not shown
chain 2: B1 chain 2
B3: CODV-Ig Batch ID 219 (IL4 × IL13 on HC; L1=3, L2=6, L3=3, L4=0) (bispecific antibody)
chain 1: not shown
chain 2: DIVLTQSPASLAVSLGQRATISCRASESVDSYGQSYMHWYQQKAGQPPKLLIYLASNLESGVPARFSGSGSRTDFTLTIDPVQAEDAATYYCQQNAEDSRTFGGGTKLEIKGGGDIQMTQSPASLSVSVGDTITLTCHASQNIDVWLSWFQQKPGNIPKLLIYKASNLHTGVPSRFSGSGSGTGFTLTISSLQPEDIATYYCQQAHSYPFTFGGGTKLEIKGGGGGGRTVAAPSVFIFPPSDEQLKSGTASVVCLLNNFYPREAKVQWKVDNALQSGNSQESVTEQDSKDSTYSLSSTLTLSKADYEKHKVYACEVTHQGLSSPVTKSFNRGEC
B4: CODV-Ig Batch ID 243 (IL4 × IL13 on HC; L1=3, L2=6, L3=6, L4=0) (bispecific antibody)
chain 1: not shown
chain 2: B3 chain 2
B5: CODV-Ig Batch ID 225 (IL4 × IL13 on HC; L1=3, L2=6, L3=3, L4=2) (bispecific antibody)
chain 1: not shown
chain 2: B3 chain 2
B6: CODV-Ig Batch ID 216 (IL4 × IL13 on HC; L1=7, L2=5, L3=2, L4=2) (bispecific antibody)
chain 1: not shown
chain 2: DIVLTQSPASLAVSLGQRATISCRASESVDSYGQSYMHWYQQKAGQPPKLLIYLASNLESGVPARFSGSGSRTDFTLTIDPVQAEDAATYYCQQNAEDSRTFGGGTKLEIKGGGGGGGDIQMTQSPASLSVSVGDTITLTCHASQNIDVWLSWFQQKPGNIPKLLIYKASNLHTGVPSRFSGSGSGTGFTLTISSLQPEDIATYYCQQAHSYPFTFGGGTKLEIKGGGGGRTVAAPSVFIFPPSDEQLKSGTASVVCLLNNFYPREAKVQWKVDNALQSGNSQESVTEQDSKDSTYSLSSTLTLSKADYEKHKVYACEVTHQGLSSPVTKSFNRGEC
B7: CODV-Ig Batch ID 240 (IL4 × IL13 on HC; L1=7, L2=5, L3=5, L4=2) (bispecific antibody)
chain 1: not shown
chain 2: B6 chain 2
B8: CODV-Ig Batch ID 209 (IL4 × IL13 on HC; L1=7, L2=3, L3=2, L4=0) (bispecific antibody)
chain 1: not shown
chain 2: DIVLTQSPASLAVSLGQRATISCRASESVDSYGQSYMHWYQQKAGQPPKLLIYLASNLESGVPARFSGSGSRTDFTLTIDPVQAEDAATYYCQQNAEDSRTFGGGTKLEIKGGGGGGGDIQMTQSPASLSVSVGDTITLTCHASQNIDVWLSWFQQKPGNIPKLLIYKASNLHTGVPSRFSGSGSGTGFTLTISSLQPEDIATYYCQQAHSYPFTFGGGTKLEIKGGGRTVAAPSVFIFPPSDEQLKSGTASVVCLLNNFYPREAKVQWKVDNALQSGNSQESVTEQDSKDSTYSLSSTLTLSKADYEKHKVYACEVTHQGLSSPVTKSFNRGEC
B9: CODV-Ig Batch ID 233 (IL4 × IL13 on HC; L1=7, L2=3, L3=5, L4=0) (bispecific antibody)
chain 1: not shown
chain 2: B8 chain 2
B10: CODV-Ig Batch ID 215 (IL4 × IL13 on HC; L1=7, L2=3, L3=2, L4=2) (bispecific antibody)
chain 1: not shown
chain 2: B8 chain 2
B11: CODV-Ig Batch ID 222 (IL4 × IL13 on HC; L1=6, L2=6, L3=3, L4=0) (bispecific antibody)
chain 1: not shown
chain 2: DIVLTQSPASLAVSLGQRATISCRASESVDSYGQSYMHWYQQKAGQPPKLLIYLASNLESGVPARFSGSGSRTDFTLTIDPVQAEDAATYYCQQNAEDSRTFGGGTKLEIKGGGGGGDIQMTQSPASLSVSVGDTITLTCHASQNIDVWLSWFQQKPGNIPKLLIYKASNLHTGVPSRFSGSGSGTGFTLTISSLQPEDIATYYCQQAHSYPFTFGGGTKLEIKGGGGGGRTVAAPSVFIFPPSDEQLKSGTASVVCLLNNFYPREAKVQWKVDNALQSGNSQESVTEQDSKDSTYSLSSTLTLSKADYEKHKVYACEVTHQGLSSPVTKSFNRGEC
B12: CODV-Ig Batch ID 228 (IL4 × IL13 on HC; L1=6, L2=6, L3=3, L4=2) (bispecific antibody)
chain 1: not shown
chain 2: B11 chain 2
B13: CODV-Ig Batch ID 213 (IL4 × IL13 on HC; L1=5, L2=3, L3=2, L4=2) (bispecific antibody)
chain 1: not shown
chain 2: DIVLTQSPASLAVSLGQRATISCRASESVDSYGQSYMHWYQQKAGQPPKLLIYLASNLESGVPARFSGSGSRTDFTLTIDPVQAEDAATYYCQQNAEDSRTFGGGTKLEIKGGGGGDIQMTQSPASLSVSVGDTITLTCHASQNIDVWLSWFQQKPGNIPKLLIYKASNLHTGVPSRFSGSGSGTGFTLTISSLQPEDIATYYCQQAHSYPFTFGGGTKLEIKGGGRTVAAPSVFIFPPSDEQLKSGTASVVCLLNNFYPREAKVQWKVDNALQSGNSQESVTEQDSKDSTYSLSSTLTLSKADYEKHKVYACEVTHQGLSSPVTKSFNRGEC
B14: CODV-Ig Batch ID 201 (IL4 × IL13 on HC; L1=5, L2=3, L3=1, L4=2) (bispecific antibody)
chain 1: not shown
chain 2: B13 chain 2
B15: CODV-Ig Batch ID 237 (IL4 × IL13 on HC; L1=5, L2=3, L3=5, L4=2) (bispecific antibody)
chain 1: not shown
chain 2: B13 chain 2

Each binder was assayed against T1, recombinant human IL4 (assay: SPR (Biacore 3000), captured CODV-Ig, antigen as analyte;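 further: kd derived from kinetic fits in BIAevaluation 4.1, with signals referenced against a flow cell lacking captured antibody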).
Experimental: (§1) Kinetic binding analysis by Biacore was performed as follows. Surface plasmon resonance technology on a Biacore 3000 (GE Healthcare) was used for detailed kinetic characterization of purified antibodies. […] Chip surfaces were regenerated with 10 mM glycine pH 2.5. Kinetic parameters were analyzed and calculated in the BIAevaluation program package v4.1 using a flow cell without captured antibody as a reference.
For B1, the Kd was 10 pM.
Binder B2 has a Kd of 9.3 pM.
Binder B3 has a Kd of 8 pM.
B4 showed a Kd of 5 pM.
For B5, the Kd was 6 pM.
B6 was tested, and the Kd was 11 pM.
B7 was tested, and the Kd was 4 pM.
With B8 the Kd was 5 pM.
B9 showed a Kd of 3 pM.
For B10, the Kd was 4 pM.
For B11, the Kd was 7 pM.
With B12 the Kd was 7 pM.
For B13, the Kd was 5 pM.
In the case of B14, the Kd is reported as 4 pM.
B15 was tested, and the Kd was 8.1 pM.

What follows are binders tested against T2, recombinant human IL13 (human, UniProt P35225 35-146, limits assumed) in the same assay as above.
T2 construct: bought; also called Antigen2
T2 sequence (P35225 35-146 limits assumed): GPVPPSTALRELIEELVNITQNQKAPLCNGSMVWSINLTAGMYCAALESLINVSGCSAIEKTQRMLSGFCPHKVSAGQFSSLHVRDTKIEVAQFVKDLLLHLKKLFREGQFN
Experimental: as §1
Binder B1 has a Kd of 0.053 nM.
For B2, the Kd was 0.0672 nM.
For B3, the Kd was 0.071 nM.
Work on B4 yielded a Kd of 0.05 nM.
B5 gave a Kd of 0.068 nM.
Binder B6 has a Kd of 0.04 nM.
For B7, the Kd was 0.065 nM.
B8 was tested, and the Kd was 0.047 nM.
B9 was tested, and the Kd was 0.113 nM.
With B10 the Kd was 0.05 nM.
Binder B11 has a Kd of 0.053 nM.
Binder B12 has a Kd of 0.044 nM.
B13 showed a Kd of 0.027 nM.
In the case of B14, the Kd is reported as 0.072 nM.
In the case of B15, the Kd is reported as 0.101 nM.
